From patent US20220396794A1, “APTAMERS AGAINST TRANSFERRIN RECEPTOR (TfR)” (APTERNA LIMITED, priority 2019, published 2022) come the findings set out here.

The target in series [1] is T1, TfR2 (Homo sapiens, UniProt Q9UP52).
T1 construct: In contrast, TB10 expresses TfR2, not TfR1; endogenous in cells; host or cells: TB10 human glioma cells
T1 sequence (Q9UP52 1-801): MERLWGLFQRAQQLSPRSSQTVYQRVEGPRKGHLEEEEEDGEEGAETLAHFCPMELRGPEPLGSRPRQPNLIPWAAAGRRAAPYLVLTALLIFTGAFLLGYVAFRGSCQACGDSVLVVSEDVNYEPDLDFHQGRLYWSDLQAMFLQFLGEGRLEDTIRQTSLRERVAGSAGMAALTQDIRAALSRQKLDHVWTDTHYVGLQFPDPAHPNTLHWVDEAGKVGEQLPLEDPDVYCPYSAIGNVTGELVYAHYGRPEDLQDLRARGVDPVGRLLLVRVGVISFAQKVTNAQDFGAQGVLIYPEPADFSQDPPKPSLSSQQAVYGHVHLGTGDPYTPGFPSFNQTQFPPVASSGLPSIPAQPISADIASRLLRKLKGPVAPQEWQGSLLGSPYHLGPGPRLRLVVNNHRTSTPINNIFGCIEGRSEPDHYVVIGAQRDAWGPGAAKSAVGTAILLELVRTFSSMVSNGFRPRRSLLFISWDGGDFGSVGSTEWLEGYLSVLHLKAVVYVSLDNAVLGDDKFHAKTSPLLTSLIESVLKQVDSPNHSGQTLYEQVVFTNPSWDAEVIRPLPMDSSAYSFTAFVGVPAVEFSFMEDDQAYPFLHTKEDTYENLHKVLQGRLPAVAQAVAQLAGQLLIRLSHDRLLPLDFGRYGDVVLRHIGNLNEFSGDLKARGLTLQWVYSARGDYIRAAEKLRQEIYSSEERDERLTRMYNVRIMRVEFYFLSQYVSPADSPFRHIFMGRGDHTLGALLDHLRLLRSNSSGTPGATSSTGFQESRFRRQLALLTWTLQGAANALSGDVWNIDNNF
Put plainly: Cross-reactivity by live cell confocal imaging, TB10 cells (express TfR2, not TfR1). It is filed as cell-based. The conditions noted are these: Cy3-labelled aptamer, TB10 cells (TfR2 only). As to the method: (§1) Cell line. HepG2 (Hepatocarcinoma, HB-8065) and PANC-1 (Pancreatic epithelioid carcinoma, CRL-1469), U-87 MG (Glioblastoma, HTB-14) were purchased from the American Type Culture Collection (ATCC, Manassas, Va.). The cells were cultured according to the suppliers' instructions. TB10 human glioma cell line was obtained from Vittorio de Franciscis lab in Italy. The cells were cultured according to the suppliers' instructions.
(§2) To determine the potential cross-reactivity of the parent TR14, S2 (43-nt) and ST1-3 (22-nt) truncates, we tested chemically synthesized parent TR14, TR14-[…] or TR14-ST1-3 aptamer labelled with Cy3 on live cells imaging by confocal microscopy. To test this, we choose two glioblastoma cell lines (U87MG and TB10) that are selectively expressed of TfR1 or TfR2. The U87MG cells only express TfR1, not TfR2. In contrast, TB10 expresses TfR2, not TfR1.

Series [2] relates to PANC-1 cells. Put plainly: Co-localization assay with early endosome, late endosome and lysosome markers. It is filed as cell-based, human. The note with it: Cy3 labelled aptamer 200 nM, 2 h, live cells expressing GFP-Rab5a, Rab7a or Lamp1. As to the method: Co-localization assay. 1×10^5 PANC-1 cells were seeded in 35 mm glass-bottom dishes (MatTek, Ashland, Mass.) and grown in appropriate media for 24 h. CellLight™ Early endosome-GFP BacMam 2.0 (Thermo Fisher, C10586, CellLight™ Late endosome-GFP BacMam 2.0 (Thermo Fisher, C10588), or CellLight™ Lysosome-GFP BacMam 2.0 lysosome-GFP (Thermo Fisher, C10596) of 20 μL were added and incubated at 37° C. for 16 h. After confirmation of GFP expression, chemically synthesized TR14 labelled with Cy3 at 200 nM was incubated at 37° C. for 2 h. The co-localization was assessed on live cells by confocal microscopy.

For series [3], the system named is HepG2 cells. Briefly: Live-cell confocal imaging for aptamer internalization, HepG2. The conditions noted are these: Cy3-labeled aptamer 200 nM, 2-h incubation, HepG2, confocal microscopy. The series is classed as cell-based, human. As to the method: (§3) Live-cell confocal imaging for aptamer internalization. 1×10^5 HepG2 or PANC-1 cells were seeded in 35-mm glass-bottom dishes (MatTek, Ashland, Mass.) and grown in appropriate media for 24 h. Aptamer RNAs were labeled with Cy3 fluorescent dye using the Cy3 Silencer siRNA labeling kit (Thermo Fisher Scientific, Waltham, Mass.). Cy3-labeled aptamers in binding buffer (30 mM Tris-HCl, pH 7.5; 150 mM NaCl; 5 mM MgCl2; 100 μg/mL yeast tRNA) were added to the cells at 200 nM and incubated at 37° C. for 2 h. Before imaging, cells were washed with DPBS twice. Live-cell confocal imaging was performed with a Zeiss LSM 510 Meta inverted two-photon confocal microscope system using a C-Apo 40×/1.2NA water immersion objective, and AIM 4.2 software (Carl Zeiss, Jena, Germany).

In series [4] the test system is PANC-1 cells. Briefly: Competition assays with human transferrin or human transferrin receptor antibodies. The conditions noted are these: aptamer 200 nM. The series is classed as cell-based. As for the experimental part: Competition assays. For competition assays with human transferrin or human transferrin receptor antibodies, 5×10^3 PANC-1 cells/well were seeded in 96-well plates and grown in one day. Cells were pre-incubated with TR14 at 200 nM for 20 min on ice with PBS. After washing with PBS, human transferrin conjugated with Alexa-488 at 25 μg/mL or human transferrin receptor antibody (2 μL/1×10^4 cells) conjugated with FITC were added to cells and the cells were incubated at 37° C. for 40 min. Afterward, the cells were washed with HBSS twice to remove cell surface binders. The intensity of fluorescence was quantified using plate reader (Molecular device, SpectraMax iD5). The intensity was normalized with aptamer non-treated control cells (mock).

In series [5] the test system is PANC-1 cells. Put plainly: Cellular uptake inhibition assay with endocytosis inhibitors. The series is classed as cell-based, human. The note with it: Cy3-aptamer 200 nM, 1 hour. As for the experimental part: Cellular uptake inhibition assay. 5×10^3 PANC-1 cells/well were seeded in 96-well plates one day before assay. PANC-1 cells were left either pretreated or untreated with chlorpromazine (CPZ, clathrin endocytosis inhibitor, 10 μg/mL), chloroquine (CQ, clathrin endocytosis inhibitor, 20 μg/mL), dynasore (dynamine inhibitor, 80 μM), genistein (GEZ, caveolae/lipid mediated endocytosis inhibitor, 50 μg/mL), or, cytochalasin D (Cyto D, 5 μM) at 37° C. for 30 min. Subsequently, cells were washed with DPBS and incubated with Cy3-labeled aptamers at 200 nM at 37° C. f for 1 hour. Following incubation, cells were washed with HBSS to remove surface-bound aptamers. Cellular uptake was quantified by fluorescence using a plate reader (Molecular device, SpectraMax iD3). The inhibition of uptake was normalized with inhibitor non-treated groups (mock)

Series [6] deals with T2, hTfR1 (extracellular domain of hTfR, His6-tagged) (Homo sapiens, UniProt P02786).
T2 construct: (NP_003225.2) (Cys 89-Phe 760); His6 (N); purchased Sino Biological Inc 11020-H07H; host or cells: HEK293
Put plainly: Surface plasmon resonance-based biosensor assay (Biacore T100), aptamer-hTfR binding affinity and kinetics. From the text:
Recombinant target protein. hTfR was purchased from Sino Biological Inc (11020-H07H, Beijing, P.R. China). The extracellular domain of hTfR (NP_003225.2) (Cys 89-Phe 760) was expressed with a His6-tag at the N-terminus in human cells (HEK293).
Surface plasmon resonance-based biosensor assay. The Biacore T100 (GE Healthcare, Uppsala, Sweden) was used to monitor label-free interactions of truncated TR14-hTfR1 in real time. The biotinylated aptamer was coupled to a streptavidin-coated Biacore chip (SensorChip SA, BR-1003-98, General Electric Company) by an injection in binding buffer at a concentration of 25 μg/mL (30 mM Tris-HCl, pH 7.5; 150 mM NaCl; 5 mM MgCl2) at 10 uL/min. The RNA was refolded by heating to 65° C., followed by cooling to 37° C., before immobilization. To measure binding kinetics, five concentrations of purified hTfR1 protein were injected at a flow rate of 10 uL/min. After binding, the surface was regenerated by injecting 50 mM NaOH at a flow rate of 15 μL/min for 20 s. Data from the control surface were subtracted. BIAevaluation software (GE Healthcare) was used for analysis. The binding data was fit to a 1:1 binding with a mass transfer model to calculate kinetics parameters as previously described (Hernandez et al, 2009; Soontornworajit et al, 2011)

In series [7] the target is T3, TfR1 (Homo sapiens, UniProt P02786).
T3 construct: The U87MG cells only express TfR1, not TfR2; endogenous in cells; host or cells: U87MG (U-87 MG, ATCC HTB-14)
Put plainly: Cross-reactivity by live cell confocal imaging, U87MG cells (express TfR1, not TfR2). The series is classed as cell-based. The conditions noted are these: Cy3-labelled aptamer, U87MG cells (TfR1 only). As to the method:
as §1, §2

The subject of series [8] is PANC-1 cells. Briefly: Flow cytometry-based binding assay. It is filed as cell-based, human. The note with it: Cy3-labelled aptamer 500 nM, 20 minutes in ice, PANC-1, compared with initial RNA library pool. As for the experimental part: Flow cytometry-based binding assays. Aptamer binding was assessed by flow cytometry. For the assay, the PANC-1 cells were detached using Accutase, washed with PBS and suspended in binding buffer. Next, chemically synthesized aptamers labeled with Cy3 at 500 nM were added to target cells for 20 minutes in ice. Cells were washed with binding buffer and immediately analyzed by NovoCyte (ACEA Biosciences). For the exclusion of dead cells, 4′6′-diamidino-2-phenylindole (DAPI) (1 μg/ml) was used. The data were analyzed with NovoExpress software.

Series [9] concerns PANC-1 cells. Briefly: Live-cell confocal imaging for aptamer internalization, PANC-1. The note with it: Cy3-labeled aptamer 200 nM, 2-h incubation, PANC-1, confocal microscopy. It is filed as cell-based, human. As for the experimental part: as §3
Setting [10] is: Biacore T100, biotinylated aptamer on streptavidin chip, hTfR1 protein injected, 1:1 binding with mass transfer.
Setting [11] is: label-free biosensor assay in real-time.

T2 sequence (P02786 89-760): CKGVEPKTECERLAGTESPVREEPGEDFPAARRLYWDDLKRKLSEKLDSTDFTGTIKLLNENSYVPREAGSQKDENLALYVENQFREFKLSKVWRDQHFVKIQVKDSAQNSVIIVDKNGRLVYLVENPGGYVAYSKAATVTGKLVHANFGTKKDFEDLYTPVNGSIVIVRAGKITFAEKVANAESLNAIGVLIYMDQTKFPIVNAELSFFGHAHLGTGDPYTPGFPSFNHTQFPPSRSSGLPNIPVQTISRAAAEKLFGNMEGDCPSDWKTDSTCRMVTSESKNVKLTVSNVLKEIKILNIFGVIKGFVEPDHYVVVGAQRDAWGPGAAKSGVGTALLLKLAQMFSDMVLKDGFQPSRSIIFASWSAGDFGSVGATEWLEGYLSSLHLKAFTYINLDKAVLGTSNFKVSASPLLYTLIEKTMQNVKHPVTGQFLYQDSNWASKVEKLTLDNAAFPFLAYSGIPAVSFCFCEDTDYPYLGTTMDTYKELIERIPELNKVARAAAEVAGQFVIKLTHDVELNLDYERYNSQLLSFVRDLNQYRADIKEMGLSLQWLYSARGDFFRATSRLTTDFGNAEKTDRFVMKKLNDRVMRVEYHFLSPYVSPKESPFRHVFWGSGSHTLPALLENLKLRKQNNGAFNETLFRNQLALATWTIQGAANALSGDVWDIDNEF
T3 sequence (P02786 whole entry): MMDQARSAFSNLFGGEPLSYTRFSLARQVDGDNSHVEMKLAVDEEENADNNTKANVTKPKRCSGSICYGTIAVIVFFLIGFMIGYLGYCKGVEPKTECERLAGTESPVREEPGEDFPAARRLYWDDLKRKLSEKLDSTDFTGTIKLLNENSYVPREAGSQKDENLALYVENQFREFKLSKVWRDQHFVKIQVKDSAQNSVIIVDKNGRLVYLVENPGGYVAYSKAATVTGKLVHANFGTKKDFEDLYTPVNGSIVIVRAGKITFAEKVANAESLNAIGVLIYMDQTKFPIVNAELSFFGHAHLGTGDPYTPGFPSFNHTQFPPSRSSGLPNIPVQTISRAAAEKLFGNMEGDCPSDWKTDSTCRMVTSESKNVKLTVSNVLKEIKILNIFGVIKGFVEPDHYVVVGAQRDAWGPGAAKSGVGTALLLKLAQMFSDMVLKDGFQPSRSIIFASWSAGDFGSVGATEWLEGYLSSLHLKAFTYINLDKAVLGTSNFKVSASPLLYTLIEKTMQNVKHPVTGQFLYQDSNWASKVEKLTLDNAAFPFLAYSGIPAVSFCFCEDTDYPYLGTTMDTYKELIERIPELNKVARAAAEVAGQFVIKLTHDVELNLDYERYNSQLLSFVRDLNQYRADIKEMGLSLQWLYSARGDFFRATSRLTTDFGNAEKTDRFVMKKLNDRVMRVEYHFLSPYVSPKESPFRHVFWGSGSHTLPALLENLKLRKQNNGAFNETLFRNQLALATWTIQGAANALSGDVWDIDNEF

B1: TR14: 87-nucleotide anti-hTfR 2′F-RNA aptamer identified after nine rounds of protein SELEX; SEQ ID NO:1 (nucleic acid)
chain: GGGAGACAAGAAUAAACGCUCAAUGCGUUCACGUUUAUUCACAUUUUUGAAUUGAGCAUGAGCUUCGACAGGAGGCUCACAACAGGC
modifications: 2'-fluoro RNA aptamer from SELEX, modified positions not given here
As for B1, in series [1], the “binding to TfR2” value was “bound to both TfR1 and TfR2”. Moreover, in series [2], the “subcellular co-localization with early endosome, late endosome and lysosome” value is given as “multiple co-localizations”. Further, the cell internalization entry in [3] is “successfully internalized”. Further, in series [4] (FITC-conjugated human transferrin receptor antibody), the “competition with transferrin receptor antibodies” value is “did not compete”. For the same molecule, the “internalized transferrin after pre-incubation with aptamer” value in [4] (human transferrin-Alexa-488 25 μg/mL) is given as “significantly inhibited”. Also, the “uptake of aptamer after pre-treatment with clathrin mediated endocytosis (CME) inhibitors” value in series [5] (chlorpromazine 10 μg/mL, chloroquine 20 μg/mL or dynasore 80 μM) is “inhibited significantly”. The “uptake of aptamer after pre-treatment with clathrin independent endocytosis (CIE) inhibitors” value in [5] (genistein 50 μg/mL or cytochalasin D 5 μM) is reported as “not interfered”. In series [6] (setting [10]), the “ka (1/Ms), measured association rate” value was 6780 M⁻¹ s⁻¹ and the “kd (1/s), measured disassociation rate” value was found to be 1.68e-06 s⁻¹. Further, in series [6] (setting [11]), the “association (ka) rate constant” value worked out at 6780 M⁻¹ s⁻¹ and the “dissociation (kd) rate constant” value turned out to be 1.68e-06 s⁻¹. Further, the Kd in [6] (label-free biosensor assay in real-time, read-out: equilibrium dissociation constant (K^D) for hTfR) came out at 0.0317 nM. Also, the “binding to TfR1” value in series [7] is “bound to both TfR1 and TfR2”. Besides, in series [8], the “cell surface binding by flow cytometry” value is on record as “enriched cell surface binding”. For the same molecule, in [9], the cell internalization result is listed as “successfully internalized”.
